Test results published in the supplement of paper PMC10567573.

B1: ZNF8 (parent)
chain: SLGRHKRTHTGEKPYTCSVCGKSF
B2: TEKT4 (parent)
chain: SEVEELNMSLTALREKLLEAEQSL

Variants of: B1
Assay: protein stability index of a GFP-peptide fusion (GPS, HEK-293T) (PSI 1-6); higher = more stable
Settings: c terminus: a fixed tail appended
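Note: lentivirally expressed fusions sorted by FACS into six bins by GFP to DsRed ratio, PSI derived from sequencing read proportions per bin multiplied by bin number.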

Variant	protein stability index
SLGRHKRTHTGEKPYTCSVCGKSH	4.04
SLGRHKRTHTGEKPYTCSVCGKSI	2.92
SLGRHKRTHTGEKPYTCSVCGKSK	3.62
SLGRHKRTHTGEKPYTCSVCGKSL	3.02
SLGRHKRTHTGEKPYTCSVCGKSM	2.85
SLGRHKRTHTGEKPYTCSVCGKSN	3.27
SLGRHKRTHTGEKPYTCSVCGKSP	3.5
SLGRHKRTHTGEKPYTCSVCGKSQ	2.69
SLGRHKRTHTGEKPYTCSVCGKSR	2.92
SLGRHKRTHTGEKPYTCSVCGKSS	3.44
SLGRHKRTHTGEKPYTCSVCGKST	2.24
SLGRHKRTHTGEKPYTCSVCGKSV	3.27
SLGRHKRTHTGEKPYTCSVCGKSW	2.93
SLGRHKRTHTGEKPYTCSVCGKSY	2.45

Variants of: B2
Assay: as above
Settings: c terminus: a fixed tail appended

Variant	protein stability index
AEVEELNMSLTALREKLLEAEQSL	3.43
CEVEELNMSLTALREKLLEAEQSL	2.63
DEVEELNMSLTALREKLLEAEQSL	3.64
EEVEELNMSLTALREKLLEAEQSL	3.28
FEVEELNMSLTALREKLLEAEQSL	2.31
GEVEELNMSLTALREKLLEAEQSL	3.25
HEVEELNMSLTALREKLLEAEQSL	3.19
IEVEELNMSLTALREKLLEAEQSL	2.37
KEVEELNMSLTALREKLLEAEQSL	2.23
LEVEELNMSLTALREKLLEAEQSL	2.96
MEVEELNMSLTALREKLLEAEQSL	2.27
NEVEELNMSLTALREKLLEAEQSL	2.2
PEVEELNMSLTALREKLLEAEQSL	2.94
QEVEELNMSLTALREKLLEAEQSL	3.52
REVEELNMSLTALREKLLEAEQSL	2.19
TEVEELNMSLTALREKLLEAEQSL	2.6
VEVEELNMSLTALREKLLEAEQSL	2.76
WEVEELNMSLTALREKLLEAEQSL	2.26
YEVEELNMSLTALREKLLEAEQSL	2.31
SAVEELNMSLTALREKLLEAEQSL	2.84
SCVEELNMSLTALREKLLEAEQSL	2.66
SDVEELNMSLTALREKLLEAEQSL	3.06
SFVEELNMSLTALREKLLEAEQSL	1.76
SGVEELNMSLTALREKLLEAEQSL	2.31
SHVEELNMSLTALREKLLEAEQSL	2.3
SIVEELNMSLTALREKLLEAEQSL	2.42
SKVEELNMSLTALREKLLEAEQSL	2.19

Variant	protein stability index
SLVEELNMSLTALREKLLEAEQSL	2.72
SMVEELNMSLTALREKLLEAEQSL	2.74
SNVEELNMSLTALREKLLEAEQSL	2.55
SPVEELNMSLTALREKLLEAEQSL	3.14
SQVEELNMSLTALREKLLEAEQSL	2.69
SRVEELNMSLTALREKLLEAEQSL	3.06
SSVEELNMSLTALREKLLEAEQSL	2.34
STVEELNMSLTALREKLLEAEQSL	2.41
SVVEELNMSLTALREKLLEAEQSL	2.45
SWVEELNMSLTALREKLLEAEQSL	1.98
SYVEELNMSLTALREKLLEAEQSL	1.68
SEAEELNMSLTALREKLLEAEQSL	3.61
SECEELNMSLTALREKLLEAEQSL	3.39
SEDEELNMSLTALREKLLEAEQSL	3.64
SEEEELNMSLTALREKLLEAEQSL	3.98
SEFEELNMSLTALREKLLEAEQSL	2.83
SEGEELNMSLTALREKLLEAEQSL	3.67
SEHEELNMSLTALREKLLEAEQSL	3.29
SEIEELNMSLTALREKLLEAEQSL	3.16
SEKEELNMSLTALREKLLEAEQSL	2.45
SELEELNMSLTALREKLLEAEQSL	3.51
SEMEELNMSLTALREKLLEAEQSL	2.63
SENEELNMSLTALREKLLEAEQSL	2.57
SEPEELNMSLTALREKLLEAEQSL	3.47
SEQEELNMSLTALREKLLEAEQSL	3.4
SEREELNMSLTALREKLLEAEQSL	2.83
SESEELNMSLTALREKLLEAEQSL	3.29

Variant	protein stability index
SETEELNMSLTALREKLLEAEQSL	2.99
SEWEELNMSLTALREKLLEAEQSL	2.4
SEYEELNMSLTALREKLLEAEQSL	2.95
SEVAELNMSLTALREKLLEAEQSL	1.86
SEVCELNMSLTALREKLLEAEQSL	2.29
SEVDELNMSLTALREKLLEAEQSL	2.63
SEVFELNMSLTALREKLLEAEQSL	2.34
SEVGELNMSLTALREKLLEAEQSL	2.89
SEVHELNMSLTALREKLLEAEQSL	2.06
SEVIELNMSLTALREKLLEAEQSL	2.59
SEVKELNMSLTALREKLLEAEQSL	2.24
SEVLELNMSLTALREKLLEAEQSL	2.26
SEVMELNMSLTALREKLLEAEQSL	2.07
SEVNELNMSLTALREKLLEAEQSL	3.12
SEVPELNMSLTALREKLLEAEQSL	2.73
SEVQELNMSLTALREKLLEAEQSL	2.32
SEVRELNMSLTALREKLLEAEQSL	2.02
SEVSELNMSLTALREKLLEAEQSL	2.71
SEVTELNMSLTALREKLLEAEQSL	2.59
SEVVELNMSLTALREKLLEAEQSL	2.58
SEVWELNMSLTALREKLLEAEQSL	1.68
SEVYELNMSLTALREKLLEAEQSL	1.99
SEVEALNMSLTALREKLLEAEQSL	2.37
SEVECLNMSLTALREKLLEAEQSL	2.31
SEVEDLNMSLTALREKLLEAEQSL	2.63
SEVEFLNMSLTALREKLLEAEQSL	2.76
